Measurements taken from patent US20240360436A1.

T1: TIGIT antigen (UniProt Q495A1)
T1 sequence (looked up): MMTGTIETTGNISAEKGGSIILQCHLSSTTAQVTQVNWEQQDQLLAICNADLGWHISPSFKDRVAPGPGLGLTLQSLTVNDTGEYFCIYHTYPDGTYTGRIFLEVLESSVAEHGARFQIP


Target: T1, TIGIT antigen
Assay: ELISA on TIGIT antigen, OD405

Binder | ELISA OD405 Reading
TT357 (Fab, part only; not given: Tiragolumab light chain, V domains shown, part only) VH: QVQLVQSGGGLVQPGGSLRLSCAASGFTFSRYWMTWVRQAPGKGLEWVANTNQDGSETYYVDSVKGRFTISRDNAKNSLYLQMNSLRAEDTAVYYCARRWSGYHDGSGYDYFDYWDQGTLVTVSS | 0.471 OD405
TT385 (Fab, part only; not given: Tiragolumab light chain, V domains shown, part only) VH: EVQLVESGPEVKKPGTSVKVSCKASGLTFSRSAVQWLRQARGQRLEWIGWVDVASSNTNYAQKFQERVTITRDMSTSTAYMELSNLRTEDTAVYYCAADLYGFWGVQGFDPWGQGTMVTVSS | 0.474 OD405
TT321 (Fab, part only; not given: Tiragolumab light chain, V domains shown, part only) VH: EVQLVESGGGLVQPGGSLRLSCAASGFTFNMYAMSWVRQGPGKGLEWVSTISGGAGSTYYADSVKGRFTISRDNSKNTVYLQMNSLRAEDTAVYYCASEVVAATTLDYWGQGTTVTVSS | 0.547 OD405
